# Test results from paper PMC5905287, “Synthesis and in vitro biochemical evaluation of oxime bond-linked daunorubicin–GnRH-III conjugates developed for targeted drug delivery” (Beilstein Journal of Organic Chemistry, 2018).
# Read-outs that look alike come from different tables or passages of the source. Non-standard residues stand in square brackets, D forms with d. Residues, ends and D or L forms follow the SMILES beside them. *: point of attachment. Daunorubicin(13-NOCH2CO) = COc1cccc2c1C(=O)c1c(O)c3c(c(O)c1C2=O)C[C@@](O)(C(C)=NOCC(=O)*)C[C@@H]3O[C@H]1C[C@H](N)[C@H](O)[C@H](C)O1; pGlu = O=C1CC[C@@H](C(=O)O)N1; Butyryl = CCCC(=O)*
# Columns and labels:
# [1] = Degradation in rat liver lysosomal homogenate (LC-MS); type: in vitro ADME; conditions: for incubation time after which the smallest Dau-containing metabolite H-Lys(Dau=Aoa)-OH was detected: pH 5
# Experimental: In order to gain insight into the cellular release of the drug, the degradation of the Dau–GnRH-III derivatives 1–6, K1 and K2 was determined in the presence of rat liver lysosomal homogenate at 37 °C. […] However, the degradation level and the cleavage sites within the GnRH-III sequence differ considerably depending on the incorporated amino acids, whereby the hydrolyses of the C-terminus (H-Gly-NH2 and H-Pro-Gly-NH2) occurred first in all eight GnRH-III derivatives. Due to the high chemical and enzymatic stability of the oxime bond, no free Dau was detected by LC–MS. In accordance with our previous results, the digestion of the two peptides containing L-Asp in position 6 (K1, K2) provided the smallest Dau-containing metabolite (H-Lys(Dau=Aoa)-OH, m/z 729.36 [M + H]^+). This metabolite could already be detected after 1 hour of incubation in case of K2 and after 2 hours in case of K1. […] It might be assumed that D-Trp of GnRH-III–[^4Lys(Bu), ^6D-Tpr, ^8Lys(Dau=Aoa)] (6) is also accepted at the cleavage site, but due to the prior hydrolysis of the ^7Trp-^8Lys(Dau=Aoa)-bond an evidential fragment has not been detected. A reason for these diversities might be the subsite specificities of the lysosomal proteases. For instance, lysosomal cysteine proteases also known as cathepsins show a broad substrate specificity. […] For instance, the analyzed fragments of the ^6L-Asp derivatives gave clear hints for the presence of endopeptidases, while the digestion of the ^6D-Aaa compounds 1–3 gave only fragments which evidence the activity of exomono- and/or dipeptidases. Moreover, the obtained results for the bioconjugates that contain ^4Lys(Bu) (K2, 4–6) instead of serine indicate a proteolytic cleavage by lysosomal endopeptidases, which might be of great importance for the release of the smallest Dau-containing metabolite.
# The rat liver lysosomal homogenate was prepared as previously described. The protein concentration was determined by Qubit Protein Assay Kit according to the manufacturer’s protocol (ThermoFisher Scientific, Waltham, MA, USA). The bioconjugates were dissolved in ddH2O to a concentration of 5 µg/µL. The reaction was carried out in 0.2 M NaOAc buffer (pH 5), with an identical concentration of bioconjugate and rat liver lysosomal homogenate (0.25 µg/µL). The reaction mixtures were incubated at 37 °C and aliquots of 15 µL were taken at 5 min, 1 h, 2 h, 4 h, 8 h and 24 h and quenched with 2 µL of acetic acid. The analysis of the samples was performed by LC–MS.
# GnRH-RI = target: T1, GnRH-RI (Homo sapiens, UniProt P30968); assay: Competitive inhibition of [125I][6D-Trp]-GnRH-I binding, human pituitary membranes; parameters: human prostate cancer cells were obtained from a patient at the time of initial surgical treatment; from tissue; host or cells: human prostate cancer specimen from a patient (surgery); membrane homogenate
# T1 sequence (P30968 1-328): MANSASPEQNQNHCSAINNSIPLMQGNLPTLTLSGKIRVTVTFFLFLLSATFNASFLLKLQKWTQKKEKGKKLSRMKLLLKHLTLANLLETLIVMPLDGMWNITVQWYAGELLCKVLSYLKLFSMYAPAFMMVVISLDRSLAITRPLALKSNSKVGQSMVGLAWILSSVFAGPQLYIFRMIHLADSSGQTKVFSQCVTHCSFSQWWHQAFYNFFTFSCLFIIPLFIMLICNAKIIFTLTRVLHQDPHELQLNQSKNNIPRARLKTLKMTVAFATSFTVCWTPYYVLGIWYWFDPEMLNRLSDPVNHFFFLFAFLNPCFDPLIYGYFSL
# Experimental: To investigate the binding affinity of the novel compounds to the GnRH-receptor, an in vitro ligand competition assay has been performed on human pituitary and GnRH-R positive human prostate cancer tissues. Hereby, the displacement of radiolabeled triptorelin by the unlabeled bioconjugates 1, 2, 4 and 5 was determined. For a better comparison, the bioconjugates K1 and K2 were also analyzed and used as reference. The obtained results summarized in Table 3 point out that all bioconjugates replaced [^125I]-triptorelin with IC50 values in low nanomolar range. […] (1.6 nM and 0.9 nM) and GnRH-II–[D-Lys^6(Dau=Aoa)] (4.2 nM and 2.1 nM).
# Radiolabeled triptorelin was used for displacement studies to evaluate the binding affinity of the conjugates K1, K2, 1, 2, 4 and 5 to GnRH-RI on human pituitary and human prostate cancer cells. […] The binding affinities of the nonradio-labeled GnRH-III bioconjugates to GnRH-RI were determined by displacement of [^125I]-GnRH-I-[^6D-Trp] performing an in vitro ligand competition assay as recently reported. […] Supernatants were aspirated and the bottoms of the tubes containing the pellet were cut off and counted in a gamma counter. Protein concentration was determined by the method of Bradford using a Bio-Rad protein assay kit (Bio-Rad Laboratories, USA). […]
Structure (SMILES),incubation time after which the smallest Dau-containing metabolite H-Lys(Dau=Aoa)-OH was detected [1],"IC50 (GnRH-RI; displacement of [125I]-triptorelin, human pituitary membranes, mean ± SE, read-out: IC50 pituitary)","incubation time after which the smallest Dau-containing metabolite H-Lys(Dau=Aoa)-OH was detected ([1]; rat liver lysosomal homogenate, 37 °C)","release of the smallest Dau-containing metabolite H-Lys(Dau=Aoa)-OH ([1]; rat liver lysosomal homogenate, 37 °C, up to 24 h)",IC50 (GnRH-RI)
"COc1cccc2c1C(=O)c1c(O)c3c(c(O)c1C2=O)C[C@@](O)(C(C)=NOCC(=O)NCCCC[C@H](NC(=O)[C@H](Cc1c[nH]c2ccccc12)NC(=O)[C@@H](CCC(=O)O)NC(=O)[C@H](Cc1c[nH]cn1)NC(=O)[C@H](CO)NC(=O)[C@H](Cc1c[nH]c2ccccc12)NC(=O)[C@H](Cc1c[nH]cn1)NC(=O)[C@@H]1CCC(=O)N1)C(=O)N1CCC[C@H]1C(=O)NCC(N)=O)C[C@@H]3O[C@H]1C[C@H](N)[C@H](O)[C@H](C)O1 [compound 2, [6D-Glu, 8Lys(Dau=Aoa)]] ([pGlu]HWSH[dE]WK(Daunorubicin(13-NOCH2CO))PG-NH2)",24 h,23.5 ± 2.1 nM,,,
"CCCC(=O)NCCCC[C@H](NC(=O)[C@H](Cc1c[nH]c2ccccc12)NC(=O)[C@H](Cc1c[nH]cn1)NC(=O)[C@@H]1CCC(=O)N1)C(=O)N[C@@H](Cc1c[nH]cn1)C(=O)N[C@H](CCC(=O)O)C(=O)N[C@@H](Cc1c[nH]c2ccccc12)C(=O)N[C@@H](CCCCNC(=O)CON=C(C)[C@]1(O)Cc2c(O)c3c(c(O)c2[C@@H](O[C@H]2C[C@H](N)[C@H](O)[C@H](C)O2)C1)C(=O)c1c(OC)cccc1C3=O)C(=O)N1CCC[C@H]1C(=O)NCC(N)=O [compound 5, [4Lys(Bu), 6D-Glu, 8Lys(Dau=Aoa)]] ([pGlu]HWK(Butyryl)H[dE]WK(Daunorubicin(13-NOCH2CO))PG-NH2)",,,24 h,identified in small amount,7.9 ± 1.1 nM
